Results on 6 molecules are retold here after US20240150474A1 (Regeneron, published 2024).

One experiment addresses T1, dimeric human BMPR1B (human, UniProt O00238 14-126, limits assumed).
T1 construct: Construct and dimerising part not described; also called Human Receptor BMPR1B
T1 sequence (looked up): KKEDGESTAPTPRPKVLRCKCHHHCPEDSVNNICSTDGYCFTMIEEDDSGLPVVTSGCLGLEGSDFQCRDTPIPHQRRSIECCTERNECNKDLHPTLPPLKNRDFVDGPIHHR
Description: SPR Biacore T200, mAb captured by anti-human Fab, 100 nM dimeric receptor injected, 25C. The method, then: (§1) ACVR1 mAbs were tested for cross-reactivity to a panel of bone morphogenic protein type 1 receptors including human and mouse ACVR1, BMPR1A, and BMPR1B, as well as ACVRL1 on a Biacore T200 as follows. In order to measure the specificity of ACVR1 mAbs, ACVR1 mAbs were captured with anti-human Fab immobilized on a CM5 chip. 100 nM or 10 nM of dimeric human or mouse ACVR1, ACVRL1, BMPR1A or BMPR1B were injected at 30 μL/min for 2 min (duplicate injections) and the experiment was performed at 25° C. Binding of different receptors to the captured mAb was determined using Scrubber 2.0c software.

In a further experiment the target is T2, dimeric human BMPR1A (human, UniProt P36894 24-152, limits assumed).
T2 construct: Construct and dimerising part not described; also called Human Receptor BMPR1A
T2 sequence (P36894 24-152 limits assumed): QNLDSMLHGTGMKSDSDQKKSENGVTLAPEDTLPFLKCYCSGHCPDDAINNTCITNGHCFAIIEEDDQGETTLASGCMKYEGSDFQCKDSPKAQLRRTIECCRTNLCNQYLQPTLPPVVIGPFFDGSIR
Described as above. The method, then: as §1

In the next experiment the target is T3, dimeric mouse BMPR1A (mouse, UniProt P36895 24-152, limits assumed).
T3 construct: Construct and dimerising part not described; also called Mouse Receptor BMPR1A
T3 sequence (P36895 24-152 limits assumed): as the sequence (P36894 24-152 limits assumed) above, with S16L, S21P, A74T counted along it
The description is as above. As for the experimental part: as §1

The target of the next experiment is T4, dimeric mouse BMPR1B (mouse, UniProt P36898 14-126, limits assumed).
T4 construct: Construct and dimerising part not described; also called Mouse Receptor BMPR1B
T4 sequence (looked up): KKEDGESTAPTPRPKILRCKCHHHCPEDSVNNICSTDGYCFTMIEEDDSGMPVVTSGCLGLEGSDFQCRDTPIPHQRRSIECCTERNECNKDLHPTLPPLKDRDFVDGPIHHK
Described as above. As for the experimental part: as §1

The target of a further experiment is T5, dimeric human ACVR1 (human, UniProt Q04771 21-123, limits assumed).
T5 construct: ACVR1'; also called Human Receptor ACVR1
T5 sequence (looked up): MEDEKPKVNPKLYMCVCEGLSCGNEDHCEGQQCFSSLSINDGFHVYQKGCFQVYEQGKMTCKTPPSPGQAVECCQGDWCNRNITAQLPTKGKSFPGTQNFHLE
The description is as above. The method, then:
as §1

The next experiment has as its target T6, dimeric human ACVRL1 (human, UniProt P37023 22-118, limits assumed).
T6 construct: Construct and dimerising part not described; also called Human Receptor ACVRL1
The description is as above. The method, then: as §1

In another experiment the target is T7, dimeric mouse ACVRL1 (mouse, UniProt Q61288 23-119, limits assumed).
T7 construct: Construct and dimerising part not described; also called Mouse Receptor ACVRL1
T7 sequence (looked up): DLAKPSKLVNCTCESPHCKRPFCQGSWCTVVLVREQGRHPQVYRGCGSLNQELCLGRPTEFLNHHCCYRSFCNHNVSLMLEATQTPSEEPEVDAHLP
The experiment is described as above. As for the experimental part:
as §1

A further experiment deals with T8, dimeric mouse ACVR1 (mouse, UniProt P37172 21-123, limits assumed).
T8 construct: also called Mouse Receptor ACVR1
T8 sequence (looked up): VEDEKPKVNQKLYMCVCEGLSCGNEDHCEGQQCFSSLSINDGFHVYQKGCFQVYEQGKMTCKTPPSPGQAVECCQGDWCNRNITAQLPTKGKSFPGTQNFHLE
The experiment is described as above. The method, then:
as §1

Experiment [1] deals with full length human ACVR1 (amino acids 1-509, R206H, of accession #Q04771) on HEK293/BRE-luc/hACVR1-R206H-clone H2 cells (human) (UniProt Q04771). Description: flow cytometry, secondary antibody alone on HEK293/hACVR1-R206H cells, 4C.
The target of experiment [2] is human ACVR1 extracellular domain expressed with a C-terminal myc-myc-hexahistidine tag (human). Description: BLI (Octet) cross-competition: hACVR1.mmh captured on anti-His biosensor, saturated with 1st mAb REGN 5167 (50 ug/mL), then dipped into 2nd mAb Isotype Control (50 ug/mL); white cell.
Experiment [3] has the same target. As to the kind of experiment: BLI (Octet) cross-competition: hACVR1.mmh captured on anti-His biosensor, saturated with 1st mAb REGN 5168 (50 ug/mL), then dipped into 2nd mAb Isotype Control (50 ug/mL); white cell.
The target is the same in experiment [4]. As to the kind of experiment: BLI (Octet) cross-competition: hACVR1.mmh captured on anti-His biosensor, saturated with 1st mAb REGN 5166 (50 ug/mL), then dipped into 2nd mAb Isotype Control (50 ug/mL); white cell.
For experiment [5] the target is unchanged. As to the kind of experiment: BLI (Octet) cross-competition: hACVR1.mmh captured on anti-His biosensor, first dipped into 1st mAb Isotype Control (50 ug/mL), then into 2nd mAb Isotype Control (50 ug/mL); dotted cell (self-self).
Experiment [6] concerns the target full length human ACVR1 (amino acids 1-509, R206H, of accession #Q04771) on HEK293/BRE-luc/hACVR1-R206H-clone H2 cells (human) (UniProt Q04771). Description: flow cytometry, 70 nM antibody on HEK293/hACVR1-R206H cells, 4C.
Experiment [7] deals with T9, mouse ACVR1 extracellular domain expressed with a C-terminal myc-myc-hexahistidine tag (mouse).
T9 construct: also called mACVR1-mmh; mACVR1.mmh
T9 chain: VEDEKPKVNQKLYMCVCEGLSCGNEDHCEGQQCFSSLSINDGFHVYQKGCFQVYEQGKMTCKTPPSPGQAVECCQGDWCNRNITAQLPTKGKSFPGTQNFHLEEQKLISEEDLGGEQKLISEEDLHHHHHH
Description: SPR, mACVR1.mmh captured by anti-myc antibody on CM5, Fab injected, 37C. The method, then:
In order to measure the binding constants of ACVR1 Fabs, mACVR1.mmh was captured with a myc antibody (REGN 642) immobilized on a CM5 chip. Different concentrations of ACVR1 Fabs were injected over mACVR1.mmh at 37° C. Binding rate constants and equilibrium dissociation rate constants were calculated by fitting data using 1:1 Langmuir binding model (Scrubber 2.0c).

Experiment [8] addresses T10, human ACVR1 extracellular domain expressed with a C-terminal myc-myc-hexahistidine tag (human).
T10 construct: also called hACVR1-mmh; hACVR1.mmh
T10 chain: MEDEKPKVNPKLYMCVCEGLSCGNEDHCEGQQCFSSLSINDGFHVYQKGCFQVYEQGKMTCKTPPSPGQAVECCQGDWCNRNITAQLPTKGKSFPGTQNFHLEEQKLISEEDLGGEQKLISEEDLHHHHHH
Description: SPR, hACVR1.mmh captured by anti-myc antibody on CM5, Fab injected, 37C. As for the experimental part:
In order to measure the binding constants of ACVR1 Fabs, hACVR1.mmh was captured with a myc antibody (REGN642) immobilized on a CM5 chip. Different concentrations of ACVR1 Fabs were injected over hACVR1.mmh at 37° C. Binding rate constants and equilibrium dissociation rate constants were calculated by fitting data using 1:1 Langmuir binding model (Scrubber 2.0c).

T6 sequence (P37023 22-118 limits assumed): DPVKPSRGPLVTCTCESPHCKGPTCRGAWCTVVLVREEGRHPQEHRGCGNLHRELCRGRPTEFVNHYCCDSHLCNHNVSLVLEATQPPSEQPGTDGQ

As for Isotype control (Example 4) (antibody), the 100 nM Human Receptor Binding in the experiment with dimeric human BMPR1B turned out to be 19 RU; in the experiment with dimeric human BMPR1A, 1 RU; with dimeric human ACVR1, 11 RU; in the experiment with dimeric human ACVRL1 it was 2 RU. For the same molecule, the 100 nM Mouse Receptor Binding with dimeric mouse BMPR1A came out at 7 RU; in the experiment with dimeric mouse BMPR1B, 1 RU; in the experiment with dimeric mouse ACVRL1 it was 2 RU; with dimeric mouse ACVR1, 8 RU.
“Alexa Fluor-647 conjugated secondary antibody (Jackson ImmunoResearch, anti-human #109-607-003)” gave an MFI-Normalized to Unstained Control in [1] of 1 fold.
Turning to “isotype-matched negative control (Example 5) (antibody)”, the wavelength shift of 2nd mAb binding amounted to 0.05 nm in experiment [2], 0.04 nm in [3], 0.05 nm in [4] and 0.07 nm in experiment [5].
human IgG control antibody came in with an MFI-Normalized to Unstained Control in experiment [6] of 3 fold.

B1: REGN 5167 Fab (Fab, V domains shown)
VH: QLQLQESGPGLVKPSETLSLTCTVSGGSITSSSYYWAWIRQPPGKGLEWIGKIYYSGSTHYNPSLKSRVTISVDTSKNQFSLKLSSVTAADTAVYYCARVGGHGYGDSAGLAFDIWGQGTMVTVSS
VL: EIVLTQSPGTLSLSPGERATLSCRASQSVSSAFLAWYQQKPGQAPRLLIYGASYRHTGIPDRFSGSGSGTDFTLTISRLEPEDFAVYYCQHYGVGPRTFGGGTKVEIK
notes: also called ACVR1 Fab
On to B1, for which, in experiment [7], the Kd was found to be 0.178 nM, the koff came out at 9.72e-05 s⁻¹, the kon was 545000 M⁻¹ s⁻¹ and the t1/2 is 1.98 h. In experiment [8], this molecule came in with a Kd of 0.17 nM, a koff of 9.36e-05 s⁻¹, a kon of 549000 M⁻¹ s⁻¹ and a t1/2 of 2.05 h.

B2: REGN 5166 Fab (Fab, V domains shown)
VH: QVQLVESGGGVVQPGRSLRLSCAASGFTFSAYWMHWVRQAPGKGLEWVAVISYDGSNKYYADSVKGRFTISRDHSKNTLYLQMNSLRAEDTAVYYCAKGDAYDSWRILLGGDYYGMDVWGQGTTVTVSS
VL: EIVLTQSPGTLSLSPGERATLSCRASQSVSSSYLAWYQQKPGQAPRPLIYGASSRATGIPDRFSGSGSGTDFTLTISRLEPEDFAVYYCQQGGDAPPYTFGGGTKVEIK
notes: also called ACVR1 Fab
With B2, in [7], the dissociation constant (Kd) worked out at 0.16 nM, the koff was 0.000105 s⁻¹, the kon worked out at 653000 M⁻¹ s⁻¹ and the t1/2 is 1.83 h. In [8], this molecule registered a Kd of 0.154 nM, a koff of 0.000106 s⁻¹, a kon of 690000 M⁻¹ s⁻¹ and a t1/2 of 1.82 h.
